# Source: the nanobody polyreactivity screen of Harvey et al. (2022)
# Assay: yeast display, Sf9 membrane polyspecificity reagent, FACS + sequencing; frameworks hold sequencing errors
# Procedure, shortened: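 Galactose-induced (36–48 hours) yeast carrying a synthetic nanobody display library were exposed to 10% biotinylated, detergent-solubilized Sf9 membrane reagent at 4 °C for 1 hour. FACS followed streptavidin microbead enrichment, using low and high (top ~1%) gates for expression (anti-HA) and reagent binding (streptavidin). Colony PCR, MiSeq 2 × 250 sequencing and CDR-length filtering followed. Labels for polyreactivity reflect the gate of origin.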
sequence,measurement,value
QVQLVESGGGLVQAGGSLRLSCDASGSIFAWYAMGWYRQAPGKERELVATITWSGGSTYYADSVKGRFTISRDNANNTVYLQMNSLKQEDTAVYYCAADRVWPYYQYDYWGQGTQVSVSS,polyreactivity (PSR sort gate),low polyreactivity
QVQLVESGGGLVQAGGSLRLSCAASGITFRSYAMGWYRQAPGKDRELVAAISRTGGRTYYADSVKGRFTISRDNAKNTVYLQMNSLKAEDSAVYYCAAGGYSPYSLVGYDYWGQGTQVTVSS,polyreactivity (PSR sort gate),high polyreactivity
QVQLLESGGGLVQAGGSLRLSCAASGSIIPYYAMGWYRQAPGKESELVAAITSGGGSTYYADSVKGRFTISRDNAMNSVYLQMNSLKPEDTAVYYCAAVLTSYYGGDYWGQGTQVTVSS,polyreactivity (PSR sort gate),low polyreactivity
QVQLVESGGGLVQAGGSLRLSCAASGSTLTYYAMGWYRQAPGKERELVAAISVSGGRTYYADSVKGRFTISRDNAKYTVYLQMNSLKPEDTAVYYCNALSSRAGGRGYDYWGQGTHVTVSS,polyreactivity (PSR sort gate),high polyreactivity
QVQLVESGGGLVQAGGSLRLSCAASGSTFVKYAMGWYRQAPGKERELVAAIDSSGGSTYYADSVKGRFTISRDNAKNTVYLQMNSLKAEDTAVYYCAAPRGNRLKGLEGYYWGQGTQVTVSS,polyreactivity (PSR sort gate),high polyreactivity
QVQLVESGGGLVQAGGSLRLSCAASGRIIGINAMGWYRQAPGKERELVATITSGGDTNYADSVKGRFTISRDNAKNTVYLQMNSLKPEDTAVYYCNAESYGLGFGYDYWGQGTQVTVSS,polyreactivity (PSR sort gate),low polyreactivity
QVQLVESGGGLVQAGGSLRLSCAASGRIFYINAMGWYRQAPGKERELVAAITEGGVSTYYADSVKGRFTISRDNAMNTVYLQMNSLKPEDTAVYYCNTTGGTDGIVIYEYWGQGTQVTVSS,polyreactivity (PSR sort gate),low polyreactivity
QDQLVDSGGGLVQAGGSLRLSCAASGSIQSRYAMGWYRQAPGKERELVAAISRSTDSTYYADSVKGRFTISRDNAKNTVYLKMNSLKPEDTAGYYCNAVYRSSYQKGSMDYWGQGTQVTVSS,polyreactivity (PSR sort gate),high polyreactivity
QVQRVESGGGIVQAGGSLRLSCAASGSTFSYYAMGWYRQAPGKERELVAAISSSGGNTYYADSVKGRFTISRDNAKNTVYLQMNSLKPEDTAVYYCAKLYRYIYGGMDYWGQGTQVTVSS,polyreactivity (PSR sort gate),high polyreactivity
QVQLEESGGGLVQAGGSLRLSCAASGFTFSGYDMGWYSPAPGKERELVAGISYGGVSTTYADSVKGRFTISRDNAKNTVYVQMNSLKPEDTAVYYCNAEWTSFDWGQGTQVTVSS,polyreactivity (PSR sort gate),low polyreactivity
QVQLVESAGGLVQAGGSLRLSCAASGSISGYAMGWYRQAPGKQRELVAAISRRGGSTYYADSVKGRFTISRDNEKNTVYLQMNSLKPEDTAVYFCAADPYTRQPNSDRYYWGQGTQVTVSS,polyreactivity (PSR sort gate),high polyreactivity
QVQLVESGGGLVQAGGSLRLSCAASGSIFTTYAMGWYRQAPGKERELVAAISSGGGTNYADSVKGRFTISRDNAKNTVYLQMNSLKPEDTAVYYCNKRYYRLQLHNAYGATPRRNYWGQGTQVTVSS,polyreactivity (PSR sort gate),low polyreactivity
QVQLVESGGGLVQAGGSLRLSCAASGSTFRYYAMGWYRQAPGKERELVAAITSGGSTNYADSVKGRFTISRDNAKNTVYLQMNSLKPEDTAVYYCAAGRRLRHRYNQGGPDYGYWGQGSQVTVSS,polyreactivity (PSR sort gate),low polyreactivity
QVQLVESGGGLVQAGGSLRLSCAASGGTFTFKTMGWYRQAPGKERQLVAAISISGGSTYYADSVKGRFTISRDNAKNTVYLQMNSLKPEDTAVYYCAAQYVRTPSPEYDYWGQGTQVTVSS,polyreactivity (PSR sort gate),high polyreactivity
QVQLVESGGGLVQAGGSLRLSCAASGSTFAQNAMGWYRQAPGKEREYVAAITGTVGSTYYADSVKGRFTISRDNAKNTVYLQMNSLKPEDTAVYYCNTRGFNGRVYPYDYWGQGTQVTVSS,polyreactivity (PSR sort gate),low polyreactivity
QVQLLESGGGIVQEGGSLRLSCAASGRIFSPYAMGWYRQAPGKERELVAAITWSGVSTYYADSVKGRFTLSRDNAKNSVYFQMNSLKPEDTAVYYSAVDPRGHEGVRYNYWVQGTQVTVSS,polyreactivity (PSR sort gate),low polyreactivity
QVQLVETGGGLVHAGGSLRLSCAASGSIFDAYAMGWYRQAPGKERELFASITSGGRTNYADSVKGRFTISRDNAKNTVYLQMNSLKPEDTAVYYCAKVRTRATPGLDYYYWGQGTQVTVSS,polyreactivity (PSR sort gate),high polyreactivity
QVQLVESGGGLVHAGGSLRLSCAASGSIFCTNVMGWYRQAPGKERELVAAISYSDGSTYYADSVKGRFTISRDNAKNTVYLQMNILKPEDSAVYYCADYLYYYWGGYDYWGQGTQVTVSS,polyreactivity (PSR sort gate),low polyreactivity
QVQLVESGGGLVQVGGSLRLSCAASGRTFYDYAMGWYRQAPGKERELVAAITWSGGSTYYADSVKGRFTISRDNAKNTVYLQMNSLKPEDTAVSYCAKGGSYQSRYDYWGQGTQVTVSS,polyreactivity (PSR sort gate),low polyreactivity
QVQLVESGGGLVQAGGSLRLSCAASGSIFDTYVMGWYRQAPGKERELVAAISSVSSTYADSVKGRFTISRDNAKNTVYLQLNSLKPVDTAVYYCAADSRSPGHDYWGQGTQVTVSS,polyreactivity (PSR sort gate),low polyreactivity
QVQLVESGGGLVQAGGSLRLSCAASGRIFDYYAMGWYRQAPGKERELVAVISGSGGTYYADSVKGRFTISRDNAKNTVYLQMNSLKPEDTAVYYCNAAVTSYPGYEYWGQGTQVTVSS,polyreactivity (PSR sort gate),low polyreactivity
QVQLVESGGVLVQAGGSLRLSCAAYGFIFDYYAMGWYRQAPGKERELVAAITSRGGSTYYADSVKGRFTISRDNAKNTVYLQMNSLKPEDSAVYYCAARRRSAEYNYWGQGTQVTVSS,polyreactivity (PSR sort gate),high polyreactivity
QVQLVESGGGLVQAGGSLRLSCAASGLIFRGYAMGWYRQAPGKERELVAVISSSGGITRYADSVKGRFTISRDNAKNTVYLQMNSLKPEDTAVSYCATDRAERTGYTRYVKTYNYWGQGTQVTVSS,polyreactivity (PSR sort gate),low polyreactivity
QVQLVESGGGLVQAGGSLRLSSAASGIIFTFNAMRWYRQAPGKEMELVAGISLGGSSTNYADSVKGRFTISRDNAKNTVYLQMNSLKPEDTAVYYCAAYVDIVGDYWVVGYYYWGQGTQVTVSS,polyreactivity (PSR sort gate),low polyreactivity
QVQLVESGGGLVQAGGSLRLSCAASGRIFWYYDMGWYRPAPGKERELVAAISQRGGSTYYADSVKGRFTISRDNAKNTVYLQMNSLKPEDTAVYYCAAYSRYLGPTHHIKYDYWGQGTQVTVSS,polyreactivity (PSR sort gate),high polyreactivity
QVHLVESGGGLVQAGGSLRLSCAASGLTFHRYAMGWYRQAPGKERELVAAINYSGGRTYYADSVKGRFTISRDNAKNSVYLQMNCLKPEDTEVYYCAAPRASGYYWGQGTQGTVSS,polyreactivity (PSR sort gate),high polyreactivity
QVQLVESGGGLVQAGGSLRLSCAASGRTFHGYGMGWYRQAPGKERELVAAISWSGGSTYYADSVKGRFTISRDNAKNTVYLHMNSLKAEDTAVYYCAADVYRYWISEYDDYWGQGTQVTVSS,polyreactivity (PSR sort gate),low polyreactivity
QVQLVESAGGLVQAGGSLRLSCAASGRTFGGYAMGWYRQAPGKERELVASITSGGSTYYADSVKGRFTISRDNAKNTVYLEMNSLKPEDTAVYYCAADTYFETSTRAIPSNDYWGQGTQVTVSS,polyreactivity (PSR sort gate),low polyreactivity
QVQLVESGGGLVQAGGSLRLSCAASGYIFPPYAMGWYRQAPGKERELVATITGIGGSTYYADSVKGRFTISRDNAKNTVYLQMNSLKPEDTAVYYCAARRDGYGTHYDYWGQGTQVTVSS,polyreactivity (PSR sort gate),low polyreactivity
QVQLVESGGGLVQAGGSLRLSCAASGFIFSPYDMGWYRQAPGKERELVAAISWRTGSTYYADSVKGRFTISRDNAKNTVYLQMNSLKPEDTAVYYCAARFIWSSYGRYDYWGQGTQVTVSS,polyreactivity (PSR sort gate),high polyreactivity
QVQLVESGGGLVQAGGSLRLSCAASGSIFAYYSMGWYIQAPGKERELVAAISWSGGSTYYADSVKGRFTISRDNAKNTVYLQMNSLKPEDTAVYYCNVARSYSKMYWGQGTQVTVSS,polyreactivity (PSR sort gate),high polyreactivity
QFHLVETGRGLVQAGGSLRLSCAASGVTYSQYAMGWYRQAPGKERELVARISRRRGSTSYADSVKGRCTISRDNAKNTVYLQMNRMKPEDTAVYYCAKDSPSVYPGRFGNTGGYAYDYWGQGTQVTVSS,polyreactivity (PSR sort gate),high polyreactivity
QVQLVESGGGLVQAGGSLRLSCAATGRIFGQYAMGWYRQAPGKESDFVAVISKRGGRTYYADSVMGRFTISRDNAKNTVYLQMNSLKPEDTAVYYCAAEYYPHDGAQYEYWGQGTQVTVSS,polyreactivity (PSR sort gate),high polyreactivity
QDQLVESGGGLVQAGGSLRLICAASGITFFGYVMGWYRQAPGKERELVAAINSRGGNTYYADSVKGRFTSSRDNAKNTVYLQMNSLKPEDTAVYYCAASNGYQAVTYDYWGQGTQVTVSS,polyreactivity (PSR sort gate),high polyreactivity
QVQLVESGGGLVQAGGSLRLTCAASGFTFRYYAMGWSRQAPGKERELVATISTGSGVSTYYADSVKGRFTISRDNAKNTVYLQMNSLKPEDTAVYYCAAVFGWRRYVTYDYWGQGTQVTVSS,polyreactivity (PSR sort gate),low polyreactivity
QVQLVESGGGLVQAGGSLRLSCAASGYIFRVYAMGWYTPAPGKERELVAAISGSGGRTYYADSVKGRFKFSLDIAKNTVYLKMNSLKREDTAVYYCAATLYYYVGVRYDYWGQGSQVTVSS,polyreactivity (PSR sort gate),high polyreactivity
QVQLVESGGGLVQAGGSLRLSCAASGRTFPFYAMGWYRQAPGKEREFVASITRSGGSTNYADSVKGRFTISRDNAKNTVYLQMNSLKPEDTAVYYCNAGAVYWGYSRGWYERDYWGQGTQVTVSS,polyreactivity (PSR sort gate),high polyreactivity
QVQLVESGGCLVQSGGSLRLSCAASGIILYYYAMGWYRQAPGKERELVAAISSGGNTYYADSVKGRFTISRDNAKNTVYLQMNSLKPEDPAVYFCASGTVIGGEYDYWGQGTQVTVSS,polyreactivity (PSR sort gate),low polyreactivity
QVQLVESGGGLVQAGGTLRLSCAASGRTFGYNAMGWYRPAPGKERELVAVIRSGGSTYYADSVKGRFTISRDNAKNTVYLQMNSLKPEDTAVYYCAATGLYNVTSPYSYKYDYWGQGTQVTVSS,polyreactivity (PSR sort gate),low polyreactivity
QVQLVESVGGLVQAGGSLRLSCAASGITFYYYVMGWYRQAPGKERELVAAIDTGDSTYYADSVKGRFTISRDNAKNTVYLQMNSLKPEDTAVYYCAVDYEADNELNGPDQEYGRDSWGQGTQVTVSS,polyreactivity (PSR sort gate),low polyreactivity
QVQRVESGGGLVQAGGSLRLSCAASGIIFGSYAMGGYRQAPGKERELVAAITSIGTRTYYADSVKGRFTISRDNAKNTVYLQMNSLKPEDTAVYYCNAPRFWSRHGLRDYWGQGTQVTVSS,polyreactivity (PSR sort gate),high polyreactivity
QVQLVESGGGLVQAGGSLRLSCAASGSTFYHYAMGWYRQAPGKERELVAAISTSGGRTYYADSVKGRFTISRDNAKNTVYLQMNSLKPEDTAVYYCAARPGSWYPSVPSYNYWGQGTQVTVSS,polyreactivity (PSR sort gate),low polyreactivity
QVQLGDSGGGLVQAGGSLRISCAASGNTFLYYGMGWYRQAPGKDRDLVAAITQSGGTTYYADSVHGRFTISRDNAKYTVYLQMNSQKPEDTAVYYCGATRYYYYTYVYDDRGDYWGQGTQVTVSS,polyreactivity (PSR sort gate),low polyreactivity
